From the DeepSol protein solubility set

Assay: soluble on expression in E. coli; label from the status in PepcDB or PDB records

Sequence | soluble on expression in E. coli
MGNAGESKKSNSDSAKGEEKASGSLTISGSSAMQPLVLAAAEKFMEENPDADIQVQAGGSGTGLSQVSEGAVQIGNSDVFAEEKEGIDAKALVDHQVAVVGMAAAVNPDAGVKDISKDELKKIFTGKIKNWKELGGKDQKITLVNRPDSSGTRATFVKYALDGAEPAEGITEDSSNTVKKIIADTPGAIGYLAFSYLTDDKVTALSIDGVKPEAKNVATGEYPIWAYQHSYTKGEATGLAKEFLDYLKSEDIQKSIVTDQGYIPVTDMKVTRDANGKQSLEHHHHHH | not soluble
MSGNYVINIGRQLGSGGKEIGEKLAARLGIDFYDKELINLASEESGLCKEFFEKADEKASQGIIGGLFGMRFPFISEGAMPCTNCLSNDALFKVQSDVIRRLAAEKSCVFVGRCADYILREHPRCANVFISATKEDRIARLCQMHRIDEEAAEEMIEKADKRRSEYYNYYSYKTWGAAATYHLCVDSSSLGIEETVRFVEEFVAKKLQIGM | not soluble
MGSDKIHHHHHHMGVTCVSQMPVAEGKSVQQTVELLTRKLEMLGAEKQGTFCVDCETYHTAASTLGSQGQTGKLMYVMHNSEYPLSCFALFENGPCLIADTNFDVLMVKLKGFFQSAKASKIETRGTRYQYCDFLVKVGTVTMGPSARGISVEVEYGPCVVASDCWSLLLEFLQSFLGSHTPGAPAVFGNRHDAVYGPADTMVQYMELFNKIRKQQQVPVAGIR | not soluble
MIGYPIVFRCCECTVEEQTMEHLESHIWSRHLQAFPFKCAYCDFPALSAISLMDHFAQNHSDVAIVEFKRNLEDEKRFRKMVADSIAIEIDETSQQDSSTQMTVLQPMMQQGTAQMILLPPEGSQYDEIVDHRGPDEDDFGVLDDDENIEELIDDDDDDDYIDELGNPVFIGAHDDSDYILEDDLSPQGPIRSSNNYHLKYIRTRRMDKLIDNVVVNATQRDSPEQEDCSTSGVAFADGQTNSGKMGRFSCDRCSRTFKYQSKLDEHRRTHLGVKPFQCHYCTRQFSQRGALKTHMRLHTGERPFVCQWECGKQFASSSAKSHHEKTHSGERPYICNVCGKSFTKNSHVIRHLKNIHNRELAQQDAMLRGDDVQSTDESLNIGSARSQMSDIEPRGKEIGVVHDIVEQIHEERKDFMRL | not soluble
MLPKAFLSRMAELLGEEFPAFLKALTEGKRTYGLRVNTLKLPPEAFQRISPWPLRPIPWCQEGFYYPEEARPGPHPFFYAGLYYIQEPSAQAVGVLLDPKPGERVLDLAAAPGGKTTHLAARMGGKGLLLANEVDGKRVRGLLENVERWGAPLAVTQAPPRALAEAFGTYFHRVLLDAPCSGEGMFRKDREAARHWGPSAPKRMAEVQKALLAQASRLLGPGGVLVYSTCTFAPEENEGVVAHFLKAHPEFRLEDARLHPLFAPGVPEWGEGNPELLKTARLWPHRLEGEGHFLARFRKEGGAWSTPRLERPSPLSQEALRAFRGFLEEAGLTLEGPVLDRAGHLYLLPEGLPTLLGLKAPAPGLYLGKVQKGRFLPARALALAFGATLPWPEGLPRLALTPEDPRALAFATGEGVAWEGEDHPLALVVLKTAAGEFPLDFGKAKRGVLRPVGVGLRSHHHHHH | soluble
MALLVAKAYKIIDRIKDAESRPDRLTNKDAGDVYRLFMGFPAAGVAASWHALTSDQRVGEVSTTGLALLRELFAGPRSPGANMAVAALAGDVPEDRVRQVCRAYVNRLSA | not soluble
VVKRSRATRLSPSIWSGWESPQCRSIRARLLLPRGRSRPPNADCCWNQLAVTPDTRMPASSAAGRDAAAYDAWYDSPTGRPILATEVAALRPLIEVFAQPRLEIGVGTGRFADLLGVRFGLDPSRDALMFARRRGVLVANAVGEAVPFVSRHFGAVLMAFTLCFVTDPAAIFRETRRLLADGGGLVIGFLPRGTPWADLYALRAARGQPGYRDARFYTAAELEQLLADSGFRVIARRCTLHQPPGLARYDIEAAHDGIQAGAGFVAISAVDQAHEPKDDHPLESE | not soluble
SLNEGQEMEEQFALLLETLKNQQMNEFRELFLALHIYEQGQFYQSLDEKDRQHLYNYLSPKELADMFDVIEEDNENMKDYLAEMRPSYAADMLAEMYTDNAVDLLNMLDKSQKAKYLSLLSSEEAGEIKELLHYEDETAGAIMTTEFVSIVANQTVRSAMYVLKNQADMAETIYYVYVVDQENHLVGVISLRDLIVNDDDTLIADILNERVISVHVGDDQEDVAQTIRDYDFLAVPVTDYDDHLLGIVTVDDIIDVIDDEAASDYSGLAGVDVEEVSENPLKAASK | soluble
MRTATSTSPATGTPAPVPSRTPDVTVTVIVYNDAGRLPRAVASALRQSHANIEVVISDDHSTDATEEVARELAAHDPRVVYLRLPENSGGCSAPRNRALEIARAPYLMFLDSDDELPERAVEVLLAAHRERDLDFAMGAVHRIREDGGRRTTWMPHLVAERRTLDGIEADPRLLFEHLSTSKMYARAFLDRHGLRFPEGIHYEDQLFSAQAYCLAKTFTVVPEPVYRWYIAPYADADSASISNQRHKLTNVRDRVHVQRLIDAFLAESGHEALREDKDFKFLKHDFRMYAGDLPYRDDTWLASFADLMNPYLDTLAEGAYARLPRAERVVLRLLRDRRLSDVRTAARGLGHDVAPRRVTPDEQSGRVYWGEEVPASPESRRELDLTDLDLDTRPFFTALLRHEITEITRGPGASVDLTVRTYDPALRLPVGPQRAVLHLSPGPRRLTVPFRLSPVRPGLFEGRVRLDLAAARLPLHGFAGTRHPVLRLRHRGRTHTGILLAPLAFPPLTARVPYRTGLTPHRVTLRPEGHNPGRLQITWQPVGTTAKILGPAARRLSTPRTRRAARLLSNILRLEHHHHHH | soluble
MAHHHHHHMLLVGFKPCEIVFLVDTLLGSGVSRLPQLFSFFFGGGVHSCARQRKSRKGFAPPNWHPLPRPRRLTAFPYHSQVVAHKRVVRRLLTINNLVFNCCGNLFLPICTLHPKFPFTNDLSQYVVTCEFPPLQLHFSTQAPKNCFRKQLDLVLCSINVAVDVFHPALLRTFRWIC | soluble
MAHHHHHHMADGAAMSLSGQRIPLLKPTLSKWSRQLRSDIYDELLKLPLRYALHDFRTLQAHIHAVPATATNASCTAAAGERLPPGVYHASSGLSSASPDAPAYYAVAGRDSAVGYAPPLGPADPVDVIPFFVHRSSNGHLPGKVYSMNAKTLMPAFYMRIQNIEGDMFRFEEELMKIFPTKKIFVRSHSVYVYNVNLDGRAVLHHWLLGLGF | soluble
SGQRPSLPMLATDERSTDKESPNEDREFVPCSSLDVRRIYPKGPLLVLPEKIYLYSEPTVKELLPFDVVINVAEEANDLRMQVPAVEYHHYRWEHDSQIALDLPSLTSIIHAATTKREKILIHSQCGLSRSATLIIAYIMKYHNLSLRHSYDLLKSRADKINPSIGLIFQLMEWEVALNAKT | soluble
MSLKNPLKLCGIEFTEYATPDSDFMEKAFYGFGFSKTKKMKGRDVEYFNQNDIHFLLNKEKAGFSKEFAKSHGPAICSMGWRVEDANFAFNEAVKRGAKSAENEANKLPYPAIFGIGDSLIYFIENFAKTGTNKGLIYDTDFEDIAEPVIVEDKGFLAVDHLTNNVYQGTMHKWADFYKDVFGFTEVRYFDIKGVKTALISYALASPCGKFCIPINEGKGSKDNQIDEYLNEYNGPGVQHLAFITDDLVGSLDKLDRSIVDTLNIVPEYYDEIFDRVPWVKEDKARIKEHQILVDSQSEDSYLLQIFTKNLFGPIFIEMIQRVDDQGFGEGNFSTLFKSIELNQMERGEGHHHHHH | soluble
MGSDKIHHHHHHMKIILANPRGFCAGVDRAISIVELALEIHGAPIYVRHEVVHNRFVVDGLRDRGAIFVEELDEVPNGAIVIFSAHGVSQAVRQEAKERNLKVFDATCPLVTKVHMQVARASRKGTKAILIGHEGHPEVIGTMGQYDNDKGGIYLVEDVEDIAKLTLRNDEDITFMTQTTLSIDDTADVIEVLKQKYPAIQGPRKNDICYATTNRQQAVRELAELSDLVIVVGSKNSSNSNRLAELASRMGVTAKLIDDANDIEVSWLNNVKVIGLTAGASAPEILVQSVISRLKELGVDEVEELEGCEENTVFEVPKELRINKVE | not soluble
